Measurements from the supplement of paper PMC12338614.
± gives the uncertainty stated by the source.

B1: library; numbered along this chain (parent)
chain: MEVVDPQQLGMFTEGELMSVGMDTFIHRIDSTEVIYQPRRKRAKLIGKYLMGDLLGEGSYGKVKEVLDSETLCRRAVKILKKKKLRRIPNGEANVKKEIQLLRRLRHKNVIQLVDVLYNEEKQKMYMVMEYCVCGMQEMLDSVPEKRFPVCQAHGYFCQLIDGLEYLHSQGIVHKDIKPGNLLLTTGGTLKISDLGVAEALHPFAADDTCRTSQGSPAFQPPEIANGLDTFSGFKVDIWSAGVTLYNITTGLYPFEGDNIYKLFENIGKGSYAIPGDCGPPLSDLLKGMLEYEPAKRFSIRQIRQHSWFRKKHPPAEAPVPIPPSPDTKDRWRSMTVVPYLEDLHGADEDEDLFDIEDDIIYTQDFTVPGQVPEEEASHNGQRRGLPKAVCMNGTEAAQLSTKSRAEGRAPNPARKACSASSKIRRLSACKQQ

Variants of: B1
Experiment: STK11 functional score (HeLa growth suppression), rescaled enrichment; synonymous median = 1, nonsense median = 0 (normalised score)
Settings: with HeLa; variant type: missense
Procedure, shortened: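 HeLa cells carrying an AAVS1 landing pad received codon-optimised STK11 libraries made by codon randomisation (POPCode), integrated by Bxb1, with three regions each transfected three times. Integrants that were BFP-negative and mCherry-positive were sorted by FACS 4–5 days after electroporation and then grown for about two weeks. Tiled amplicons from gDNA were sequenced on NextSeq at ~2 million reads per tile. The functional score is a wild-type-corrected log ratio of post- to pre-selection counts, rescaled to the synonymous and nonsense medians, merged across codons and replicate transfections, and given a bootstrapped error.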

Variant | STK11 functional score
L427T | 1.59 ± 0.16
V3L | 0.558 ± 0.13
D277R | 1.34 ± 0.57
I177F | 0.54 ± 0.074
L201G | 0.745 ± 0.38
N226R | 1.51 ± 0.2
A398Y | 1.23 ± 0.29
V95P | 1.65 ± 0.3
R211P | 1.19 ± 0.33
E92S | 0.979 ± 0.19
E293A | 1.03 ± 0.15
G10A | 1.38 ± 0.17
E351L | 1.43 ± 0.25
R104V | 0.88 ± 0.21
Y118E | -0.175 ± 0.13
N393R | 1.07 ± 0.18
I356R | 1.19 ± 0.38
A398T | 1.3 ± 0.21
G242P | 0.0217 ± 0.14
I356F | 1.15 ± 0.18
R211C | 1.25 ± 0.43

Variant | STK11 functional score
D194L | -0.0619 ± 0.096
T71E | 1.37 ± 0.42
P280N | 1.63 ± 0.21
Q399N | 1.39 ± 0.35
S401L | 1.51 ± 0.28
F219P | 0.116 ± 0.32
P221R | 0.116 ± 0.18
I111G | 0.385 ± 0.19
K41P | 1.58 ± 0.37
K262S | 0.994 ± 0.17
F255W | 0.941 ± 0.1
G233Q | 1.62 ± 0.24
E293P | 0.842 ± 0.41
W332Q | 1.55 ± 0.27
L164R | -0.302 ± 0.12
I88F | 0.793 ± 0.079
D343T | 1.53 ± 0.14
Y156W | 0.28 ± 0.076
L102T | 0.0689 ± 0.37
I424D | 1.54 ± 0.2
S422V | 1.05 ± 0.16

Variant | STK11 functional score
K235V | 0.794 ± 0.12
Q137N | 1.62 ± 0.28
I360K | 1.31 ± 0.4
E199Y | 1.04 ± 0.34
F309N | -0.159 ± 0.08
V66Q | 1.08 ± 0.41
Q371R | 1.55 ± 0.15
A410N | 1.32 ± 0.11
G91R | 1.03 ± 0.16
L50W | 0.44 ± 0.99
S216T | 0.847 ± 0.13
E121Q | 1.08 ± 0.45
K423V | 1.28 ± 0.41
P149A | 1.18 ± 0.12
F148C | 0.493 ± 0.087
N90P | 1.08 ± 0.3
Q364S | 1.4 ± 0.19
E376L | 1.42 ± 0.28
A316Q | 1.53 ± 0.15
M289F | -0.0683 ± 0.074
D343Y | 1.29 ± 0.41

Variant | STK11 functional score
N247M | 0.7 ± 0.58
S213A | 1.38 ± 0.49
T402P | 1.54 ± 0.46
K122A | 1.18 ± 0.53
G180S | 1.14 ± 0.18
P324S | 1.45 ± 0.11
D237E | 0.97 ± 0.53
Q7L | 1.25 ± 0.13
C158I | 1.51 ± 0.3
G381M | 1.57 ± 0.29
N266L | 0.675 ± 0.16
D258M | 0.663 ± 0.18
L190P | 0.0599 ± 0.15
I238T | 1.31 ± 0.54
T71G | 1.48 ± 0.19
G188L | 0.732 ± 0.17
L105G | 0.712 ± 0.15
A397L | 1.27 ± 0.27
D115M | 1.06 ± 0.73
C132H | 1.16 ± 0.21
R75S | 0.619 ± 0.16
